Measurements: patent US20190085095A1 (SHIRE HUMAN GENETIC THERAPIES, published 2019)
“And” between values parts separate entries of the source, which are not always exact repeats. Equal entries are not always repeated.

Columns and labels:
[1] = molecular target: T1, human complement component 5 (C5) (human, UniProt P01031 19-1676); experiment: cell-based or functional assay
[2] = molecular target: T2, cynomolgus monkey C5 (cynomolgus monkey, UniProt A0A2K5U1T1 19-1676); experiment: mean affinity for cC5, Biacore
T2 construct: also called cC5; cynomolgus C5

[3] = molecular target: T1, human complement component 5 (C5); experiment: Biacore, pH 7.4, against Control 1
Experimental: (§1) The kinetics of binding of purified human C5 (hC5) or hC5 in human serum to immobilized mAbs (via capture with anti-Fc antibodies) were measured by Biacore® assays over a pH range from 7.4 to 5.5. Binding was tested at pH 7.4, 7.0, 6.5, 6.0, and 5.5.

[4] = molecular target: T1, human complement component 5 (C5); experiment: Biacore; KD at pH 5.5 against KD at pH 7.4
Experimental: as §1

[5] = molecular target: T1, human complement component 5 (C5); experiment: Biacore, mAb captured via anti-Fc, hC5, pH 5.5
Experimental: as §1

[6] = molecular target: T1, human complement component 5 (C5); experiment: Biacore, mAb captured via anti-Fc, hC5, pH 7.4
Experimental: as §1

[7] = molecular target: T3, human neonatal Fc receptor (FcRn) (human, UniProt P55899 24-297; P61769 21-119); experiment: Biacore, immobilized recombinant hFcRn, pH 5.5; pH 5.5
T3 construct: also called hFcRn; recombinant FcRn
T3 sequence (P55899 24-297 limits assumed, chain 1 of 2): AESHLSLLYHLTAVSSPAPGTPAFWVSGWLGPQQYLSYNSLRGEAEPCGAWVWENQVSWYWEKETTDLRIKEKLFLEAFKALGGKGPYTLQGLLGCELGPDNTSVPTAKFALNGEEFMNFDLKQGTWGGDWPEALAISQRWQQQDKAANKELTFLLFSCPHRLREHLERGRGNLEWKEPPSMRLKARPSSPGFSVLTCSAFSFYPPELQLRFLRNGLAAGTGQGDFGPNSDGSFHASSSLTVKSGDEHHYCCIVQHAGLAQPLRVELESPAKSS
T3 sequence (P61769 21-119 limits assumed, chain 2 of 2): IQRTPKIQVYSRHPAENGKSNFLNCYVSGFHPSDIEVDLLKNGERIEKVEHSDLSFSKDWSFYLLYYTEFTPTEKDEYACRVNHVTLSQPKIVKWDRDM
Experimental: (§2) Kinetics of binding to immobilized recombinant FcRn was determined for mAbs at pH 7.4 and pH 5.5 in Biacore® assays.

[8] = molecular target: T3, human neonatal Fc receptor (FcRn); experiment: Biacore, immobilized recombinant hFcRn, pH 6.0; pH 6.0
Experimental: as §2

[9] = molecular target: FcγRIIIA (UniProt P08637 17-208, limits assumed); experiment: binding affinity to Fcγ receptor, method not stated; range 1000-31.25 nM
FcγRIIIA, sequence (P08637 17-208 limits assumed): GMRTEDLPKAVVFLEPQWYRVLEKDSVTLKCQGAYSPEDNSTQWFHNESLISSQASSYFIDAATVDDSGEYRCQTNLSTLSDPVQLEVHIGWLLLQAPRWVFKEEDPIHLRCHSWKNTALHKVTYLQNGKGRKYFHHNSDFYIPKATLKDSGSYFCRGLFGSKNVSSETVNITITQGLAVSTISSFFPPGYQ

[10] = molecular target: T4, baboon C5 (baboon); experiment: Biacore, antibody captured, baboon serum as analyte, pH 7.4; estimated, C5 titer assumed
T4 construct: also called C5 in baboon serum
Experimental: (§3) Biacore® binding assays were performed with antibody captured on the chip and sera from 16 different mammalian species as the analyte that is flowed over the chip.

[11] = molecular target: T5, African Green monkey C5 (African Green monkey); experiment: Biacore, antibody captured, African Green monkey serum as analyte, pH 7.4; estimated, C5 titer assumed
T5 construct: also called C5 in African Green monkey serum
Experimental: as §3

[12] = molecular target: T1, human complement component 5 (C5); experiment: Kd at pH 5.5 against Kd at pH 7.4
[13] = molecular target: T1, human complement component 5 (C5); experiment: C5 binding affinity at pH 5.5; method not named in Example 2
[14] = molecular target: T1, human complement component 5 (C5); experiment: C5 binding affinity at pH 7.4; method not named in Example 2; pH 7.4; IgG2 Fc
[15] = molecular target: T1, human complement component 5 (C5); experiment: C5 binding affinity at pH 7.4; method not named in Example 2
[16] = molecular target: T2, cynomolgus monkey C5; experiment: KD for cC5 of Antibody B against that of Control 1
[17] = molecular target: T3, human neonatal Fc receptor (FcRn); experiment: Biacore, immobilized recombinant hFcRn, pH 5.5
Experimental: as §2

[18] = molecular target: T3, human neonatal Fc receptor (FcRn); experiment: Biacore, immobilized recombinant hFcRn, pH 6.0
Experimental: as §2

[19] = molecular target: T2, cynomolgus monkey C5; experiment: Biacore, pH 7.4, cynomolgus against human (FIG. 8G)
Experimental: as §3
To validate the binding as specific to C5, pull-down experiments were performed on sera from cynomolgus monkeys. Size exclusion chromatography was used to purify the resulting cynomolgus C5, which was also used to reconfirm binding on biacore.

[20] = molecular target: T1, human complement component 5 (C5); experiment: Biacore, antibody captured, purified C5, pH 7.4
[21] = molecular target: T1, human complement component 5 (C5); experiment: Biacore, mAb captured via anti-Fc, purified hC5, pH 5.5
Experimental: (§4) Binding of hC5 to immobilized mAbs (via capture with anti-Fc antibodies) were measured by Biacore® assays at 7.4 and pH 5.5.

[22] = molecular target: T1, human complement component 5 (C5); experiment: Biacore, mAb captured via anti-Fc, purified hC5, pH 7.4
Experimental: as §4

[23] = molecular target: T1, human complement component 5 (C5); experiment: Biacore, antibody captured, human serum as analyte, pH 7.4
Experimental: as §3

[24] = molecular target: T2, cynomolgus monkey C5; experiment: Biacore, antibody captured, cynomolgus serum as analyte, pH 7.4
Experimental: as §3

[25] = molecular target: T3, human neonatal Fc receptor (FcRn); experiment: Biacore, immobilized recombinant hFcRn, pH 7.4; range 2000-15.6 nM
Experimental: as §2

[26] = molecular target: FcγRI (UniProt P12314 16-288, limits assumed); experiment: binding affinity to Fcγ receptor, method not stated; range 62.5-0.48 nM
FcγRI, sequence (P12314 16-288 limits assumed): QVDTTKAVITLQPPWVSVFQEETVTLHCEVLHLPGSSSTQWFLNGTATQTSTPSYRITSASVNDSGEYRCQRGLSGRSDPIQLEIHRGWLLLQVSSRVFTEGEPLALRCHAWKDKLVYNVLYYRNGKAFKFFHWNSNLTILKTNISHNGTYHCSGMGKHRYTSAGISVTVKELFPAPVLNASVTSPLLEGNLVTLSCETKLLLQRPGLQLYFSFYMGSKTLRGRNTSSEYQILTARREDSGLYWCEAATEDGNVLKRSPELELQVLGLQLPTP

[27] = molecular target: T6, rhesus monkey C5 (rhesus monkey, UniProt F7GHV1 19-1676); experiment: Biacore, antibody captured, rhesus serum as analyte, pH 7.4; estimated, C5 titer assumed
T6 construct: also called C5 in rhesus serum
T6 sequence (F7GHV1 entry or part of it): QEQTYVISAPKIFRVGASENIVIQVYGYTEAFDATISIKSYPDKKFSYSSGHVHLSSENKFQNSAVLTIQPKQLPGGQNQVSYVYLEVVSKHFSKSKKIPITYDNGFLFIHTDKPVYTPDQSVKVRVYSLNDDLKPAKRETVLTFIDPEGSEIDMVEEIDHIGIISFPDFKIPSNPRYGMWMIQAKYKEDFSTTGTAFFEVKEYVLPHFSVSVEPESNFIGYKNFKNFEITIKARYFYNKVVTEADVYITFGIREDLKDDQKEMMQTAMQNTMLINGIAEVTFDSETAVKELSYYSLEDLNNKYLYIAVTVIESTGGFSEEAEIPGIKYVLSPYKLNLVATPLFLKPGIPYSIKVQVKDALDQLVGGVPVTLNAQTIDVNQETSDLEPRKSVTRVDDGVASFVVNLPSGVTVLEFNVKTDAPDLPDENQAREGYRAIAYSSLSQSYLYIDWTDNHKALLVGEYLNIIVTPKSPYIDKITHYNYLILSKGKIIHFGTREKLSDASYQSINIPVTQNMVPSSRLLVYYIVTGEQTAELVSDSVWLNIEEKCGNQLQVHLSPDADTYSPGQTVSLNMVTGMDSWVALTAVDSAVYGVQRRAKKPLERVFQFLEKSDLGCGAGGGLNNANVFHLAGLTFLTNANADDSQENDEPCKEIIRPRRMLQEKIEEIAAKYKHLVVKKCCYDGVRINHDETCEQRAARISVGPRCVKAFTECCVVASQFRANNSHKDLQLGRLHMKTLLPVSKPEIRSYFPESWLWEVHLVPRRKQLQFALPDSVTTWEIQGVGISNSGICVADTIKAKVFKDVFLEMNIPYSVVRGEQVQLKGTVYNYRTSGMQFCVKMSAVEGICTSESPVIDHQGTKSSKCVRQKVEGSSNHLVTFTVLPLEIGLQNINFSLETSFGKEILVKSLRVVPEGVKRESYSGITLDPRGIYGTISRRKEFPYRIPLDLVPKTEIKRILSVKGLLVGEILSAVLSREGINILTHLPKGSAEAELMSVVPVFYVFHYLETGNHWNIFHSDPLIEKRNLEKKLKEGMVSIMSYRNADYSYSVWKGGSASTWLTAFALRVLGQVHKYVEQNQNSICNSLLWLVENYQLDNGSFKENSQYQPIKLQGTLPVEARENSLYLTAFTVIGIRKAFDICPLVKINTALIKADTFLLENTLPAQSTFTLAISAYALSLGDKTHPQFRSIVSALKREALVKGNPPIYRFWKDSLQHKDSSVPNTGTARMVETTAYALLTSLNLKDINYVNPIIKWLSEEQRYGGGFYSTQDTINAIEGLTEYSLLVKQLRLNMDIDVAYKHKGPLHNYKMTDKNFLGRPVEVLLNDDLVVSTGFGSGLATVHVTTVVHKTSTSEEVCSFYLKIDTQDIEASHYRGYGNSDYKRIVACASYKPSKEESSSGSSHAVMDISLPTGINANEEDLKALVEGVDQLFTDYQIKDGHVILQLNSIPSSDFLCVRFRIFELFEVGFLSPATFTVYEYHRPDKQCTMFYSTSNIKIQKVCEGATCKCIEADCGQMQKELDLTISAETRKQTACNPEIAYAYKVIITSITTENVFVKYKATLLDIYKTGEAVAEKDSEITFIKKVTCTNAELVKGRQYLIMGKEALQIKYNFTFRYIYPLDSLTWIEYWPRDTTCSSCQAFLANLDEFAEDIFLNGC
Experimental: as §3

[28] = molecular target: T7, CD-1 mouse C5 (CD-1 mouse, UniProt P06684 19-1680); experiment: Biacore, antibody captured, CD-1 mouse serum as analyte, pH 7.4; estimated, C5 titer assumed
T7 construct: also called C5 in CD-1 mouse serum; CD1 mice
T7 sequence (P06684 19-1680 limits assumed): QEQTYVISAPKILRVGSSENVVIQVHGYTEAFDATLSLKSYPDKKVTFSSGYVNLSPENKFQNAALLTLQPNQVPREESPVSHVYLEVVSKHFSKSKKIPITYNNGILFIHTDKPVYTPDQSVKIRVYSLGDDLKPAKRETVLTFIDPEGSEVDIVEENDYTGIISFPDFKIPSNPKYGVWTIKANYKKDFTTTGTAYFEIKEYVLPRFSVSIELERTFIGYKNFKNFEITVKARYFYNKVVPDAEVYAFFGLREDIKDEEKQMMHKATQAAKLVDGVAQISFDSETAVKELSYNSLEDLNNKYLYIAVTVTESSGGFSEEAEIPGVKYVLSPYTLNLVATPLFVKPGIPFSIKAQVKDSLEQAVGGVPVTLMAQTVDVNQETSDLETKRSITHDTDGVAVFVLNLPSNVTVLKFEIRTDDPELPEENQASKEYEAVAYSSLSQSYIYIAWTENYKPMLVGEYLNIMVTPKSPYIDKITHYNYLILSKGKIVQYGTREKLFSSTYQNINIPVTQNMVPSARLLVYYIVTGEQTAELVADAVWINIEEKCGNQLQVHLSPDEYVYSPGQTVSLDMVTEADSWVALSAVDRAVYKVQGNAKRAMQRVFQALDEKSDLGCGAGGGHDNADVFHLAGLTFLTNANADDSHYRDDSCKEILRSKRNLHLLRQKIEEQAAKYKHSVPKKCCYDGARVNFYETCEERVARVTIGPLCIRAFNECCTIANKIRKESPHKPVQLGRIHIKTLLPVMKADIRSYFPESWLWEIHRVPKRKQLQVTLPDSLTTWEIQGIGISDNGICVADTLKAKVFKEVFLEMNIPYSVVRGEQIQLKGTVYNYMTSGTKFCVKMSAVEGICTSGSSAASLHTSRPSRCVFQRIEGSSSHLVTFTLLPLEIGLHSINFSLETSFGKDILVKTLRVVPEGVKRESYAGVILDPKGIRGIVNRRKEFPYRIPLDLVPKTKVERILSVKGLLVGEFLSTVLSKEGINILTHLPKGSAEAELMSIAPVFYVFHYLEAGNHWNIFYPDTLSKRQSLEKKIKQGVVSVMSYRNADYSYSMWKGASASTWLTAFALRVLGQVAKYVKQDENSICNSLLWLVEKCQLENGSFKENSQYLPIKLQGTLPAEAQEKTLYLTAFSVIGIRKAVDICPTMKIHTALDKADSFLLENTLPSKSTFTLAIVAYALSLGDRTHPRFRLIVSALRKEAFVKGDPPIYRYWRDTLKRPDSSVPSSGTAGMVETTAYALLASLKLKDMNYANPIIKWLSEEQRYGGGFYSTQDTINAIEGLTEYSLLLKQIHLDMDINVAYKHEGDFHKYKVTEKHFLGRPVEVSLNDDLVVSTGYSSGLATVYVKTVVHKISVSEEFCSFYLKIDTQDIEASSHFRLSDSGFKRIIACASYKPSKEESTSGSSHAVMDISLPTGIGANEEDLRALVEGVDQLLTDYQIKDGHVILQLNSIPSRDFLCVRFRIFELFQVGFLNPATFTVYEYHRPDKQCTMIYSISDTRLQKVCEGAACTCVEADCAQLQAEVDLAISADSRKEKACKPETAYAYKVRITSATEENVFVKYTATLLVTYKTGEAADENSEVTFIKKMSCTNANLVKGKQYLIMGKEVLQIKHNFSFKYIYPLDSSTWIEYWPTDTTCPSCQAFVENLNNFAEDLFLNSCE
Experimental: as §3

[29] = molecular target: T3, human neonatal Fc receptor (FcRn); experiment: Biacore, immobilized recombinant hFcRn, pH 7.4; range 50-0.39 nM; pH 7.4; concentration range 50-0.39 nM
Experimental: as §2

| Binder | IC50 for inhibition of antibody-sensitized lysis of chicken RBC by human serum [1] [µg/mL] | fold reduction of the C5 binding affinity at pH 7.4 as compared to Control 1 [3] [fold] | KD fold-change [4] [fold] | Kd [5] [nM] | Kd [6] [nM] | Kd [7] [nM] | Kd [8] [nM] | Kd [9] [nM] | Kd [10] [nM] | Kd [11] [nM] | Fold change in Kd (pH 5.5 vs. pH 7.4) [12] [fold] | Kd [13] [nM] | also measured |
| --- | --- | --- | --- | --- | --- | --- | --- | --- | --- | --- | --- | --- | --- |
| Antibody A (antibody, human IgG1, kappa, L234A L235A, IgG1 with L234A, L235A) heavy: not shown light: DIQMTQSPSSLSASVGDRVTITCGAHENIYHALNWYQQKPGKAPKLLIYGATNLAHGVPSRFSGSGSGTDFTLTISSLQPEDFATYYCQNVLNTPLTFGQGTKVEIKRTVAAPSVFIFPPSDEQLKSGTASVVCLLNNFYPREAKVQWKVDNALQSGNSQESVTEQDSKDSTYSLSSTLTLSKADYEKHKVYACEVTHQGLSSPVTKSFNRGEC | 3 | < 3 | 332 | 113 | 0.34 | 5.9 | 11.3 | 7420 |  |  |  |  | Kd [2]: 1.65 nM |
| Control 1 (antibody, human IgG2, kappa, IgG2 and IgG4 (IgG 2-4); produced in CHO cells; also called control antibody) heavy: QVQLVQSGAEVKKPGASVKVSCKASGYIFSNYWIQWVRQAPGQGLEWMGEILPGSGSTEYTENFKDRVTMTRDTSTSTVYMELSSLRSEDTAVYYCARYFFGSSPNWYFDVWGQGTLVTVSSASTKGPSVFPLAPCSRSTSESTAALGCLVKDYFPEPVTVSWNSGALTSGVHTFPAVLQSSGLYSLSSVVTVPSSNFGTQTYTCNVDHKPSNTKVDKTVERKCCVECPPCPAPPVAGPSVFLFPPKPKDTLMISRTPEVTCVVVDVSQEDPEVQFNWYVDGVEVHNAKTKPREEQFNSTYRVVSVLTVLHQDWLNGKEYKCKVSNKGLPSSIEKTISKAKGQPREPQVYTLPPSQEEMTKNQVSLTCLVKGFYPSDIAVEWESNGQPENNYKTTPPVLDSDGSFFLYSRLTVDKSRWQEGNVFSCSVMHEALHNHYTQKSLSLSLGK light: DIQMTQSPSSLSASVGDRVTITCGASENIYGALNWYQQKPGKAPKLLIYGATNLADGVPSRFSGSGSGTDFTLTISSLQPEDFATYYCQNVLNTPLTFGQGTKVEIKRTVAAPSVFIFPPSDEQLKSGTASVVCLLNNFYPREAKVQWKVDNALQSGNSQESVTEQDSKDSTYSLSSTLTLSKADYEKHKVYACEVTHQGLSSPVTKSFNRGEC |  |  |  |  |  | 125 | 125 |  | 16.2 | 27.5 |  |  |  |
| Antibody D (antibody, human IgG2, kappa, IgG2 Fc constant region; also called F100H heavy / N93H light on IgG2 backbone) heavy: QVQLVQSGAEVKKPGASVKVSCKASGYIFSNYWIQWVRQAPGQGLEWMGEILPGSGSTEYTENFKDRVTMTRDTSTSTVYMELSSLRSEDTAVYYCARYHFGSSPNWYFDVWGQGTLVTVSSASTKGPSVFPLAPCSRSTSESTAALGCLVKDYFPEPVTVSWNSGALTSGVHTFPAVLQSSGLYSLSSVVTVPSSNFGTQTYTCNVDHKPSNTKVDKTVERKCCVECPPCPAPPVAGPSVFLFPPKPKDTLMISRTPEVTCVVVDVSHEDPEVQFNWYVDGVEVHNAKTKPREEQFNSTFRVVSVLTVVHQDWLNGKEYKCKVSNKGLPAPIEKTISKTKGQPREPQVYTLPPSREEMTKNQVSLTCLVKGFYPSDIAVEWESNGQPENNYKTTPPMLDSDGSFFLYSKLTVDKSRWQQGNVFSCSVMHEALHNHYTQKSLSLSPGK light: DIQMTQSPSSLSASVGDRVTITCGASENIYGALNWYQQKPGKAPKLLIYGATNLADGVPSRFSGSGSGTDFTLTISSLQPEDFATYYCQNVLHTPLTFGQGTKVEIKRTVAAPSVFIFPPSDEQLKSGTASVVCLLNNFYPREAKVQWKVDNALQSGNSQESVTEQDSKDSTYSLSSTLTLSKADYEKHKVYACEVTHQGLSSPVTKSFNRGEC |  |  |  |  |  |  |  |  |  |  | 13.4 | 13.9 | Kd [14]: 1.04 nM |
| Antibody C (antibody, human IgG1, kappa, L234A L235A, V domains shown, IgG1 with L234A, L235A, H433K, N434F) VH: QVQLVQSGAEVKKPGASVKVSCKASGYTFSHYWIQWVRQAPGQGLEWMGEILPGSGSTEYTENFKDRVTMTRDTSISTAYMELSSLRSEDTAVYYCARYHFGSSPNWYFDVWGQGTLVTVSS VL: DIQMTQSPSSLSASVGDRVTITCGAHENIYGALNWYQQKPGKAPKLLIYGATNLAHGVPSRFSGSGSGTDFTLTISSLQPEDFATYYCQNVLNTPLTFGQGTKVEIKR |  | < 3 | 142 | 37 | 0.26 |  |  |  |  |  |  |  |  |
| Antibody E (antibody, human IgG1, kappa, L234A L235A, IgG1 Fc constant region; also called F100H heavy / N93H light on IgG1 backbone) heavy: not shown light: DIQMTQSPSSLSASVGDRVTITCGASENIYGALNWYQQKPGKAPKLLIYGATNLADGVPSRFSGSGSGTDFTLTISSLQPEDFATYYCQNVLHTPLTFGQGTKVEIKRTVAAPSVFIFPPSDEQLKSGTASVVCLLNNFYPREAKVQWKVDNALQSGNSQESVTEQDSKDSTYSLSSTLTLSKADYEKHKVYACEVTHQGLSSPVTKSFNRGEC |  |  |  |  |  |  |  |  |  |  | 48.5 | 34.9 | Kd [15]: 0.72 nM |
| Antibody B (antibody, human IgG1, kappa, L234A L235A, IgG1 with L234A, L235A, H433K, N434F) heavy: not shown light: DIQMTQSPSSLSASVGDRVTITCGAHENIYHALNWYQQKPGKAPKLLIYGATNLAHGVPSRFSGSGSGTDFTLTISSLQPEDFATYYCQNVLNTPLTFGQGTKVEIKRTVAAPSVFIFPPSDEQLKSGTASVVCLLNNFYPREAKVQWKVDNALQSGNSQESVTEQDSKDSTYSLSSTLTLSKADYEKHKVYACEVTHQGLSSPVTKSFNRGEC | 3 | < 3 | 414 | 145 | 0.35 |  |  | 9620 | 2.6 | 3.2 |  |  | fold improvement in affinity against Control 1 [16]: 8 fold; Kd [17]: 0.13 nM; Kd [18]: 0.24 nM; fold lower affinity than for human C5 [19]: 5.7 fold; Kd [20]: 0.34 nM; fold lower affinity than BNJ441 at pH 5.5 [21]: 10 fold; fold greater affinity than BNJ441 at pH 7.4 [22]: 3 fold; Kd [23]: 0.33 nM; Kd [24]: 1.9 nM; Kd [25]: 191 nM; Kd [26]: 94 nM and 75 nM and 62 nM; Kd [27]: 3.19 nM; Kd [28]: 5.3 nM; Kd [29]: 108 nM |
